± gives the standard error. For some assays here: Variants at the floor of the assay were thinned out.
B1: glmS ribozyme (parent)
chain: AUAAAAGCGCCAGAACUACAGAAAUGUAGUUGACGAGGAGGAGGUUUAUCGAAUUUUCGGCGGAUGCCUCCAAA

Tests used:
Conditions in all cases: with glucosamine-6-phosphate
glucosamine-6-phosphate [1] = variants of: B1; assay: kcat; higher = faster cleavage; RNA array
Summary of the method: (§1)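 Barcoded ribozyme variants on sequenced MiSeq chips were transcribed in situ by E. coli RNA polymerase and followed at 37 °C through a hybridised Cy3 probe. Glucosamine-6-phosphate at 40 μM to 10 mM in HEPES/KCl/Mg(OAc)2 buffer was flowed in, and tiles were imaged over ~14 h. Signals were normalised to baseline and to non-cleaving reference variants, and per-tile medians were fit to one- or two-exponential decays to give kobs. Weighted Michaelis–Menten fits across concentrations gave kcat and KM.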

glucosamine-6-phosphate [2] = variants of: B1; assay: KM; higher = weaker cofactor use; RNA array
Summary of the method: as §1

glucosamine-6-phosphate [3] = variants of: B1; assay: self-cleavage kobs at 2500 uM GlcN6P; higher = faster cleavage; RNA array
Summary of the method: as §1

glucosamine-6-phosphate [4] = variants of: B1; assay: self-cleavage kobs at 10000 uM GlcN6P; higher = faster cleavage; RNA array
Summary of the method: as §1

glucosamine-6-phosphate [5] = variants of: B1; assay: self-cleavage kobs at 40 uM GlcN6P; higher = faster cleavage; RNA array
Summary of the method: as §1

glucosamine-6-phosphate [6] = variants of: B1; assay: self-cleavage kobs at 160 uM GlcN6P; higher = faster cleavage; RNA array
Summary of the method: as §1

glucosamine-6-phosphate [7] = variants of: B1; assay: self-cleavage kobs at 640 uM GlcN6P; higher = faster cleavage; RNA array
Summary of the method: as §1

Row | Variant | kcat (glucosamine-6-phosphate [1]) | KM (glucosamine-6-phosphate [2]) | self-cleavage kobs at 2500 uM GlcN6P (glucosamine-6-phosphate [3]) | self-cleavage kobs at 10000 uM GlcN6P (glucosamine-6-phosphate [4]) | self-cleavage kobs at 40 uM GlcN6P (glucosamine-6-phosphate [5]) | self-cleavage kobs at 160 uM GlcN6P (glucosamine-6-phosphate [6]) | self-cleavage kobs at 640 uM GlcN6P (glucosamine-6-phosphate [7])
1 | G13A G66A | 0.000323 ± 2.9e-05 s⁻¹ | 3550 ± 700 µM | 0.000129 ± 3.2e-05 s⁻¹ | 0.000241 ± 4.7e-05 s⁻¹ | – | – | –
2 | G66C C67U | 2.82e-05 ± 1.9e-06 s⁻¹ | 1800 ± 520 µM | – | 2.37e-05 ± 7.3e-06 s⁻¹ | – | – | –
3 | C8G C61A | < 1e-05 s⁻¹ | – | < 1e-05 s⁻¹ | – | < 1e-05 s⁻¹ | < 1e-05 s⁻¹ | –
4 | U31A A52G | 0.00103 ± 0.00022 s⁻¹ | 4620 ± 1600 µM | 0.000305 ± 4.3e-05 s⁻¹ | 0.000752 ± 7.9e-05 s⁻¹ | – | 4.63e-05 ± 1.3e-05 s⁻¹ | 0.000142 ± 2.3e-05 s⁻¹
5 | G41U U45C | 0.000379 ± 2.8e-05 s⁻¹ | 1140 ± 210 µM | 0.000273 ± 5.6e-05 s⁻¹ | 0.000331 ± 4.7e-05 s⁻¹ | – | 4.06e-05 ± 1.5e-05 s⁻¹ | 0.000157 ± 4e-05 s⁻¹
6 | A48U A64G | 0.00341 ± 0.00044 s⁻¹ | 5500 ± 1100 µM | 0.0012 ± 0.00016 s⁻¹ | 0.00214 ± 0.00022 s⁻¹ | 2.41e-05 ± 7.5e-06 s⁻¹ | 8.32e-05 ± 1.7e-05 s⁻¹ | 0.000385 ± 7.8e-05 s⁻¹
7 | G9U U31C | < 1e-05 s⁻¹ | – | – | < 1e-05 s⁻¹ | – | – | < 1e-05 s⁻¹
8 | A36C A64U | 1.13e-05 ± 3.6e-06 s⁻¹ | – | – | – | < 1e-05 s⁻¹ | – | < 1e-05 s⁻¹
9 | G32A C50U C70A | 3.48e-05 ± 1.3e-05 s⁻¹ | – | 5.7e-05 ± 1.9e-05 s⁻¹ | – | – | – | –
10 | G37C A53C | 1.74e-05 ± 7.2e-06 s⁻¹ | – | – | – | – | – | –
11 | C34U G60C | < 1e-05 s⁻¹ | – | – | – | < 1e-05 s⁻¹ | – | –
12 | G43C C68G | 0.0157 ± 0.0024 s⁻¹ | 265 ± 63 µM | 0.0139 ± 0.0031 s⁻¹ | – | 0.00205 ± 0.00027 s⁻¹ | 0.00622 ± 0.0014 s⁻¹ | 0.0109 ± 0.0018 s⁻¹
13 | G66U U69A | 0.000163 ± 3e-05 s⁻¹ | – | 0.000118 ± 2.1e-05 s⁻¹ | 0.000191 ± 3.2e-05 s⁻¹ | – | 7.46e-05 ± 3e-05 s⁻¹ | 8.9e-05 ± 1.5e-05 s⁻¹
14 | G40A U54C | 0.00522 ± 0.00053 s⁻¹ | 908 ± 140 µM | 0.00449 ± 0.0013 s⁻¹ | 0.00467 ± 0.0012 s⁻¹ | 0.000248 ± 5.6e-05 s⁻¹ | 0.000724 ± 0.00016 s⁻¹ | 0.00211 ± 0.0003 s⁻¹
15 | C61A C71U | 1.05e-05 ± 3.5e-06 s⁻¹ | – | – | – | – | – | < 1e-05 s⁻¹
16 | C10A C68A | 1.98e-05 ± 3.8e-06 s⁻¹ | – | – | – | – | – | –
17 | G43A U56A | 1.8e-05 ± 3.9e-06 s⁻¹ | – | – | – | – | – | –
18 | U49C C70G | 1.42e-05 ± 2.5e-06 s⁻¹ | – | – | < 1e-05 s⁻¹ | – | – | –
19 | A6U U30C U31G | 9.88e-05 ± 6.8e-06 s⁻¹ | 7220 ± 1100 µM | – | 5.74e-05 ± 1.6e-05 s⁻¹ | – | – | –
20 | U55C C61G | < 1e-05 s⁻¹ | – | – | < 1e-05 s⁻¹ | < 1e-05 s⁻¹ | – | –
21 | U49C C50U | < 1e-05 s⁻¹ | – | – | < 1e-05 s⁻¹ | < 1e-05 s⁻¹ | – | –
